Experimental data: publication PMC4198210

Molecular target: phosphorylated PhoP-His (recombinant N-terminal His-tag PhoP protein of Photorhabdus luminescens TT01, phosphorylated in vitro with acetyl phosphate) (Photorhabdus luminescens TT01)
Assay: Mn2+-Phos-tag SDS-PAGE; 4 ug purified PhoP-His incubated in vitro with 50 mM acetyl phosphate (lane 2) or without (lane 1) in the EMSA buffer; precast 12.5% polyacrylamide Mn2+-Phos-tag gel run at 4°C and 150 V; Coomassie stain

For “phosphorylated PhoP-His (recombinant N-terminal His-tag PhoP protein of Photorhabdus luminescens TT01, phosphorylated in vitro with acetyl phosphate) (natural protein)”, the stoichiometry N was 2.
